These sequences were tested on Bacillus subtilis (assay: cleaved RNA product abundance (RNA/gDNA barcode ratio) relative to median wild-type variant (ratio to wild type); higher = more accumulation of the downstream cleavage product). Conditions: experiment (reporter, strain, medium): exp 8a: truncated aprE reporter, strain BJT201 with 2% xylose (RNase J1 expressed); cleavage site: glnRA (positions -5 to +31 mutated).
Procedure, shortened: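 Cleaved product abundance for each construct is its RNA-to-gDNA barcode ratio, scaled to the median construct carrying the unmutated site. Cleaved RNA was isolated on a gel, reverse transcribed and barcode-sequenced, with genomic DNA barcodes sequenced alongside and UMIs collapsed. The reporters were truncated aprE or tetM mRNAs with barcoded, mutagenized RNase Y cleavage-site windows integrated into the B. subtilis chromosome, and cultures grew in LB at 37°C from OD600 0.0003 to 0.3.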

| Sequence | cleaved RNA product abundance |
| --- | --- |
| CGACATGTCCCGCTTCTTTCATTAATCCTTTAGCAACTGTTTTGCTATATACATTAACCTTTTAAGAGGAGGAAT | 0.846 |
| CGACATGTCCCGCTTCTTTCATTAATCCTTTAGCAACTGTTTTGCTATATACATTGACCTTTTAAGAGGAGGAAT | 0.333 |
| CGACATGTCCCGCTTCTTTCATTAATCCTTTAGCAACTGTTTTGCTATATACATTTACATTTTAAGAGGAGGAAT | 0.783 |
| CGACATGTCCCGCTTCTTTCATTAATCCTTTAGCAACTGTTTTGCTATATACATTTACCATTTAAGAGGAGGAAT | 0.837 |
| CGACATGTCCCGCTTCTTTCATTAATCCTTTAGCAACTGTTTTGCTATATACATTTACCTTTTAAGAGGAGGAAT | 0.612 |
| CGACATGTCCCGCTTCTTTCATTAATCCTTTAGCAACTGTTTTGCTATATACATTTATCTTTTAAGAGGAGGAAT | 0.826 |
| CGACATGTCCCGCTTCTTTCATTAATCCTTTAGCAACTGTTTTGCTATATACATTTCCCTTTTAAGAGGAGGAAT | 0.343 |
| CGACATGTCCCGCTTCTTTCATTAATCCTTTAGCAACTGTTTTGCTATATATATTTACCTTTTAAGAGGAGGAAT | 0.909 |
| CGACATGTCCCGCTTCTTTCATTAATCCTTTAGCAACTGTTTTGCTTTATACATTTACCTTTTAAGAGGAGGAAT | 0.174 |
| CGACATGTCCCGCTTCTTTCATTAATCCTTTAGCAACTGTTTTGTTATATACATTTACCTTTTAAGAGGAGGAAT | 0.553 |
| CGACATGTCCCGCTTCTTTCATTAATCCTTTAGCAACTGTTTTTCTATATACATTTACCTTTTAAGAGGAGGAAT | 0.478 |
| CGACATGTCCCGCTTCTTTCATTAATCCTTTAGCAAGTGTTTTGCTATATACATTTACCTTTTAAGAGGAGGAAT | 0.82 |
| CGACATGTCCCGCTTCTTTCATTAATCCTTTAGCATCTCTTTTGCTATATACATTTACCTTTTAAGAGGAGGAAT | 0.512 |
| CGACATGTCCCGCTTCTTTCATTAATCCTTTAGCCACTGTTTTGCTATATACATTTACCTTTTAAGAGGAGGAAT | 0.253 |
| CGACATGTCCCGCTTCTTTCATTAATCCTTTAGTAACTGTTTTGCTATATACATTTACCTTTTAAGAGGAGGAAT | 0.378 |
| CGACATGTCCCGCTTCTTTCATTAATCCTTTCGCAACTGTTTTGCTATATACATTTACCTTTTAAGAGGAGGAAT | 0.299 |
| CGACATGTCCCGCTTCTTTCATTAATCGATTAGCAACTGTTTTGCTATATACATTTACCTTTTAAGAGGAGGAAT | 0.79 |
| CGACATGTCCCGCTTCTTTCATTAATCGCTTAGCAACTGTTTTGCTATATACATTTACCTTTTAAGAGGAGGAAT | 0.335 |
| CGACATGTCCCGCTTCTTTCATTAATCGGTTAACAAATGTTGTGCTATAGACATTTACCTTTTAAGAGGAGGAAT | 0.209 |
| CGACATGTCCCGCTTCTTTCATTAATCGGTTAGAAACTGTTTTGCTATATACATTTACCTTTTAAGAGGAGGAAT | 0.222 |
| CGACATGTCCCGCTTCTTTCATTAATCGGTTAGCAACAGTTTTGCTATATACATTTACCTTTTAAGAGGAGGAAT | 0.927 |

| Sequence | cleaved RNA product abundance |
| --- | --- |
| CGACATGTCCCGCTTCTTTCATTAATCGGTTAGCAACTGTTTTGATATATACATTTACCTTTTAAGAGGAGGAAT | 0.356 |
| CGACATGTCCCGCTTCTTTCATTAATCGGTTAGCAACTGTTTTGCAATATACATTTACCTTTTAAGAGGAGGAAT | 0.349 |
| CGACATGTCCCGCTTCTTTCATTAATCGGTTAGCAACTGTTTTGCTATAAACATTTACCTTTTAAGAGGAGGAAT | 0.876 |
| CGACATGTCCCGCTTCTTTCATTAATCGGTTAGCAACTGTTTTGCTATATACATTAACCTTTTAAGAGGAGGAAT | 1.51 |
| CGACATGTCCCGCTTCTTTCATTAATCGGTTAGCAACTGTTTTGCTATATACATTTACCTTTTAAGAGGAGGAAT | 0.613 |
| CGACATGTCCCGCTTCTTTCATTAATCGGTTAGCAACTGTTTTGCTATATATATTTACCTTTTAAGAGGAGGAAT | 0.947 |
| CGACATGTCCCGCTTCTTTCATTAATCGGTTAGCAACTGTTTTGCTATCTACATTTACCTTTTAAGAGGAGGAAT | 0.132 |
| CGACATGTCCCGCTTCTTTCATTAATCGGTTATCAACTGTTTTGCTATATACATTTACCTTTTAAGAGGAGGAAT | 0.206 |
| CGACATGTCCCGCTTCTTTCATTAATCTATTAGCAACTGTTTTGCTATTTACATTTACCTTTTAAGAGGAGGAAT | 0.311 |
| CGACATGTCCCGCTTCTTTCATTAATCTGATAGCAACTGTTTTGCTATATACATTTACCTTTTAAGAGGAGGAAT | 0.81 |
| CGACATGTCCCGCTTCTTTCATTAATCTGTAAGCAACTGTTTTGCTATATACATTTACCTTTTAAGAGGAGGAAT | 0.539 |
| CGACATGTCCCGCTTCTTTCATTAATCTGTGAGCAACTGTTTTGCTATATACATTTACCTTTTAAGAGGAGGAAT | 0.777 |
| CGACATGTCCCGCTTCTTTCATTAATCTGTTAACAACTGTTTTGCTATATACATTTACCTTTTAAGAGGAGGAAT | 0.238 |
| CGACATGTCCCGCTTCTTTCATTAATCTGTTAGAAACTGTTTTGCTATATACATTTACCTTTTAAGAGGAGGAAT | 0.269 |
| CGACATGTCCCGCTTCTTTCATTAATCTGTTAGCAACAGTTTTGCTATATACATTTACCTTTTAAGAGGAGGAAT | 0.686 |
| CGACATGTCCCGCTTCTTTCATTAATCTGTTAGCAACCGTTTTGCTATATACATTTACCTTTTAAGAGGAGGAAT | 0.436 |
| CGACATGTCCCGCTTCTTTCATTAATCTGTTAGCAACTATTTTGCTATATACATTTACCTTTTAAGAGGAGGAAT | 1.77 |
| CGACATGTCCCGCTTCTTTCATTAATCTGTTAGCAACTGTTATCCTATATACATTTACCTTTTAAGAGGAGGAAT | 0.577 |
| CGACATGTCCCGCTTCTTTCATTAATCTGTTAGCAACTGTTATGCTATATACATTTACCTTTTAAGAGGAGGAAT | 0.799 |
| CGACATGTCCCGCTTCTTTCATTAATCTGTTAGCAACTGTTCTGCTATATACATTTACCTTTTAAGAGGAGGAAT | 0.368 |
| CGACATGTCCCGCTTCTTTCATTAATCTGTTAGCAACTGTTTAGCTATATACATTTACCTTTTAAGAGGAGGAAT | 0.727 |

| Sequence | cleaved RNA product abundance |
| --- | --- |
| CGACATGTCCCGCTTCTTTCATTAATCTGTTAGCAACTGTTTGGCTATATACATTTACCTTTTAAGAGGAGGAAT | 0.476 |
| CGACATGTCCCGCTTCTTTCATTAATCTGTTAGCAACTGTTTTACTATATACATTTACCTTTTAAGAGGAGGAAT | 0.541 |
| CGACATGTCCCGCTTCTTTCATTAATCTGTTAGCAACTGTTTTGATATATACATTTACCTTTTAAGAGGAGGAAT | 0.562 |
| CGACATGTCCCGCTTCTTTCATTAATCTGTTAGCAACTGTTTTGCCATATACATTTACCTTTTAAGAGGAGGAAT | 0.108 |
| CGACATGTCCCGCTTCTTTCATTAATCTGTTAGCAACTGTTTTGCTAAATACATTTACCTTTTAAGAGGAGGAAT | 1.01 |
| CGACATGTCCCGCTTCTTTCATTAATCTGTTAGCAACTGTTTTGCTATAAACATTTACCTTTTAAGAGGAGGAAT | 0.917 |
| CGACATGTCCCGCTTCTTTCATTAATCTGTTAGCAACTGTTTTGCTATAGACATTTACCTTTTAAGAGGAGGAAT | 0.968 |
| CGACATGTCCCGCTTCTTTCATTAATCTGTTAGCAACTGTTTTGCTATATAAATTTACCTTTTAAGAGGAGGAAT | 0.994 |
| CGACATGTCCCGCTTCTTTCATTAATCTGTTAGCAACTGTTTTGCTATATACAATTACCTTTTAAGAGGAGGAAT | 0.89 |
| CGACATGTCCCGCTTCTTTCATTAATCTGTTAGCAACTGTTTTGCTATATACAGTTACCTTTTAAGAGGAGGAAT | 0.249 |
| CGACATGTCCCGCTTCTTTCATTAATCTGTTAGCAACTGTTTTGCTATATACATATACCTTTTAAGAGGAGGAAT | 0.829 |
| CGACATGTCCCGCTTCTTTCATTAATCTGTTAGCAACTGTTTTGCTATATACATCTACCTTTTAAGAGGAGGAAT | 0.993 |
| CGACATGTCCCGCTTCTTTCATTAATCTGTTAGCAACTGTTTTGCTATATACATTCACCTTTTAAGAGGAGGAAT | 0.488 |
| CGACATGTCCCGCTTCTTTCATTAATCTGTTAGCAACTGTTTTGCTATATACATTGACCTTTTAAGAGGAGGAAT | 0.991 |
| CGACATGTCCCGCTTCTTTCATTAATCTGTTAGCAACTGTTTTGCTATATACATTTACATTTTAAGAGGAGGAAT | 1.2 |
| CGACATGTCCCGCTTCTTTCATTAATCTGTTAGCAACTGTTTTGCTATATACATTTACCATTTAAGAGGAGGAAT | 2.04 |
| CGACATGTCCCGCTTCTTTCATTAATCTGTTAGCAACTGTTTTGCTATATACATTTACCTTTTAAGAGGAGGAAT | 1.16 |
| CGACATGTCCCGCTTCTTTCATTAATCTGTTAGCAACTGTTTTGCTATATACATTTACTTTTTAAGAGGAGGAAT | 1.68 |
| CGACATGTCCCGCTTCTTTCATTAATCTGTTAGCAACTGTTTTGCTATATACATTTATCTTTTAAGAGGAGGAAT | 0.969 |

From the supplement of paper PMC11780869
